Assay results as given in the DeepSol protein solubility set.

Assay: soluble on expression in E. coli; label from the status in PepcDB or PDB records

| Sequence | soluble on expression in E. coli |
| --- | --- |
| SYYHHHHHHHEGVRTMEEECRVLSIQSHVIRGYVGNRAATFPLQVLGFEIDAVNSVQFSNHTGYAHWKGQVLNSDELQELYEGLRLNNMNKYDYVLTGYTRDKSFLAMVVDIVQELKQQNPRLVYVCDPVLGDKWDGEGSMYVPEDLLPVYKEKVVPLADIITPNQFEAELLSGRKIHSQEEALRVMDMLHSMGPDTVVITSSDLPSPQGSNYLIVLGSQRRRNPAGSVVMERIRMDIRKVDAVFVGTGDLFAAMLLAWTHKHPNNLKVACEKTVSTLHHVLQRTIQCAKAQAGEGVRPSPMQLELRMVQSKRDIEDPEIVVQATVL | soluble |
| MAEKSFKYIILGGGVSAGYAAKEFANQGVQPGELAVISKEAVAPYERPALSKGYLFPEGAARLPGFHCCVGSGGEKLLPESYKQKGIELILSTEIVKADLSAKSLVSATGDVFKYQTLIIATGSTVLRLTDFGVKGADSKNILYLREIDDADKLVEAIKAKKGGKAVVVGGGYIGLELSAVLRINNLDVTMVFPEPWCMPRLFTADIAAFYETYYTNKGVKIIKGTVASGFTAQPNGEVKEVQLKDGRTLEADIVIVGVGAKPLTSLFKGQVEEDKGGIKTDAFFKTSVPDVYAVGDVATFPLKMYGDVRRVEHVDHSRKSAEQAVKAIKAAEGGAAVEEYDYLPFFYSRSFDLSWQFYGDNVGDSVLFGDSNPSNPKPRFGAYWVQGGKVVGAFMEGGSGDENKALAKVAKARPSAESLDELVKQGISFAAKI | soluble |
| MGGIPDITPYPLTYSLGGVIPLSSVLEMLWVEKYRPRSLDDIVDQKHVVERLKQFVKQRNMPHLLFAGPPGTGKTTAAHALAHDLFGENYRQYMLELNASDERGINVIREKVKEFARSRTPPEIPFKIVLLDEADNMTSDAQQALRRLMELYSSVTRFILIANYPSKIIDPIQSRCAFFRFQPLSKQDVIERLRYIAENEGVDYEEEALDAIYEISEGDMRKAINVLQAASYLGKVTVDAVYRVVGMAKPREVREMLATALKGDFTAARSLLRKIMIEYGMSGEDVARQIHRELFSTELKMPEELRVLAADYLGEVHYRLVEGSDDDIQLSAFLAWLTMMSRKLEV | soluble |
| SKLDSYTHLSFYEKRELFRKKLREIEGPEVTLVNEVDDEPCPSLDFQFISQYRLTQGVIPPDPNFQSGCNCSSLGGCDLNNPSRCECLDDLDEPTHFAYDAQGRVRADTGAVIYECNSFCSCSMECPNRVVQRGRTLPLEIFKTKEKGWGVRSLRFAPAGTFITCYLGEVITSAEAAKRDKNYDDDGITYLFDLDMFDDASEYTVDAQNYGDVSRFFNHSCSPNIAIYSAVRNHGFRTIYDLAFFAIKDIQPLEELTFDYAGAKDFSPVQSQKSQQNRISKLRRQCKCGSANCRGWLFG | soluble |
| MDRLSYAIGDKAVLNNIRVQFQPGSVTALLGPNGAGKSTLLKALCQEIPSAQGSIKLGHCQLVDWPRAELAKSLAVLPQHASLTFPFTVDEVVAMGLYPLTLSQKEGQQLVTKWLAEVGVLHLARRSYPTLSGGEKQRVQLARVLTQLSQSPFPPILLLDEPTSALDLAQQHKVLALAKNLAHKHAYTVIVVLHDLNQAARYSDRVIVLKQGEIVSEGTPNDALSIDIIRQVWDYEPEFIPAPQGDYPLIF | not soluble |
| MGSDKIHHHHHHMRGIVCVHKFCSRFSRTAYFTYGWMMNIELISLLKGNMGLTLTSELAADICVAAYRMETLAQSRDIAQIKPRYNGRIVFAVERIEDITEEIKHLHRTHWNETEGHRHRLPFQPDYETFIRYEQAGRYLLFTVRSEGKLLGNCAMYLDKSAHTQTLIATEDTLYLLPEARRGTTAKRFVRYVENAMKLLGVREINITVKTVNKAARFFRLLGYRHVENGLTKILEIENV | not soluble |
| MSSIDIVIPNYNYGRFLKGCVESVLGQNIADMRILIIDNASTDDSVAISRSLAAANPRIETSLRARNLGGHASFNAGIDWARADYFAIICADDVLSPGALARAMEALDNNPGAHMAFGRTAFFRDDAEIASGLHSDADGMRLHRGMDFIANICATGRSPVQGPLAVTRTHIQQHAGHYRPALRHTDDVEMWMRLAVLGDIVELDAVQNFTRIHGANQSAILDNVLAWNAEIEAALESFFGNEGALLADAKTLLRRGRASLSDRAYWCALSNLVRRRPGAGALLAQAFRLRPASALLPPISYLMRRPDALHRIRAAIARRLEHHHHHH | not soluble |
| MSLTRHQRLFVWTVTHGFREYGVAQQKTHHNTMSPEAAIEWVVRQEPGIFIFKDLHPFISSPAVTRWLREAIASFKGTEKAIILMSPYQETPIELEKDVVVLDFALPDLVTLDGVLGQQLGKSRHALGEDSREKLLKAALGLTKDEAEKVYRKAYVKAGQLTEGEVEIVLSEKKQMIRRNEGHHHHHH | not soluble |
| SKVMTLKDAIAKYVHSGDHIALGGFTTDRKPYAAVFEILRQGITDLTGLGGAAGGDWDMLIGNGRVKAYINCYTANSGVTNVSRRFRKWFEAGKLTMEDYSQDVIYMMWHAAALGLPFLPVTLMQGSGLTDEWGISKEVRKTLDKVPDDKFKYIDNPFKPGEKVVAVPVPQVDVAIIHAQQASPDGTVRIWGGKFQDVDIAEAAKYTIVTCEEIISDEEIRRDPTKNDIPGMCVDAVVLAPYGAHPSQCYGLYDYDNPFLKVYDKVSKTQEDFDAFCKEWVFDLKDHDEYLNKLGATRLINLKVVPGLGYHIDMTKE | soluble |
| FGTFKSAITDYHGYEYKNHGYGLALTDTDLLGGSSGSLVFNQDKKISSIYSAATESDSVGYAQLLPVPKDV | not soluble |
| GSHMHAKVGDYLVVKGTTTERHDQHAEIIEVRSADGSPPYVVRWLVNGHETTVYPGSDAVVVTATEHAEAEKRAAARAGHAAT | soluble |
| MAHHHHHHMKSTQSNLNDEEKVMNNNEKIIKNSYGELLSGCIKNKSSDMNTGDVYPCNDKNTKIVSIKNVYNNLYKTSDSLFFNEENEENRMENCIIRNDGRDMENKFSLYINNAENKDDNNMNNNKNDNINDNINDNINDNINDNINDNINDNINDNINNNINDNINNNIYHNQNNNIYHNIYHNNIINDGVIINEHTSHGDRSSFLNNNKNYNISNYTNHGHNINLNEEKNEKVYMHRNENNEKIHYSNNKDYIEKGNEKSVSSKKGEETYTNNSYNIHLKNMDVKNNERDMCKTMVNNSNIKENKKYSNKTIQQEENTEHEYNIINEEEEEHIKLFKNMNLEEIKNVLSKNDASTLKILLCTDNHLGYKENNSIQKKDSFNSFEEILFIAKKLNVDMILNSGDLFHKNKVSEYTLFKSMYIIRKYCHINENDKEMQQDDNINNNIYPNDLNNDDKSVSKAISEDEFCNMYNVQVKEIKNYKYEYYKNEHTLNNRNNIFDDTNDCMSNKSFIQDKNENLYKDDEDNTNGVKLLQRNDEMNNSDHPGEYLNYRNGKKQIKYYNKLKENNNEFFNKLKICSVNQKFKKLIPFYTIHGNHDYPYSYEYISPLDILNISNLINYIGKNNLNNIVVKPILLNKYKSKISIYAVGWMKDERLYRSFENNEVKFILPSDYKNRINILVLHQNRYIRNAYGNNTKNFIKESFIPKFIDLVIWGHEHFSKPYLEESILNSFYNIQLGSSVRTSICPNEYGDKFIGLLEIKNQRFRFLKINLETVRPFEMKDIKLADYELNFKSESVLKEFLHEQTHAILEKIKNNFSHEIKKYFFFKQLFHTKNKLETNTNKKHQTEYNNINICTKEINSHLNDYQDENLYKSLISISKEDINNFYNNLKNEDFYSSTFIHFAFADPYDTFDLLKIKKEVYEKPLLKIKVEYDDVNIINTQLFGSLFINSIANPSEFLSFYRKKIRQRDIYNNNDNNNDNINDNNNNNDHGKNNTNHDTYNNNYNNNRIDEDEGDKDLHNMEYINEYNKVFDILFDYCDIKNKLLILDENVIMDTIQNFILNTNSSFNFNTNVTSDFTSINSMVDKSFKNKVESIEKQMGNMSAENITDAYLTDVLKKIKNTS | not soluble |
| MVARIYRPAKTAMQSGKAKTDQWLLEYEPEKPRVVEPLMGYTSSGDMKSQIRLFFASQEEAVAYATRNDIPYRLMEPHEPKRRKVSYSDNFRFDRPQPWTHLEHHHHHH | not soluble |
| MIYQPDENRYHTMEYRRCGRSGVKLPAISLGLWHNFGDTTRVENSRALLQRAFDLGITHFDLANNYGPPPGSAECNFGRILQEDFLPWRDELIISTKAGYTMWDGPYGDWGSRKYLIASLDQSLKRMGLEYVDIFYHHRPDPETPLKETMKALDHLVRHGKALYVGISNYPADLARQAIDILEDLGTPCLIHQPKYSLFERWVEDGLLALLQEKGVGSIAFSPLAGGQLTDRYLNGIPEDSRAASGSRFLKPEQITADKLEKVRRLNELAARRGQKLSQMALAWVLRNDNVTSVLIGASKPSQIEDAVGMLANRRFSAAECAEIDAILEGRF | not soluble |
